Test results published in patent CN115785273A (DONGGUAN PENGZHI BIOTECHNOLOGY CO LTD, dated 2023).
Each block holds one molecule with its values, some of them ahead of it.

Target: T1, PG I蛋白(fitzgerald，30R-AP038) (UniProt P0DJD8 16-388)
T1 construct: Commercial antigen; Pepsinogen I is a group of isozymogens (PGA3/PGA4/PGA5); also called 胃蛋白酶原I; HPG I
Experiment: BLI, AMC sensors, antibody captured at 10 μg/mL, PG I protein in serial dilution in PBST

T1 sequence (P0DJD8 16-388): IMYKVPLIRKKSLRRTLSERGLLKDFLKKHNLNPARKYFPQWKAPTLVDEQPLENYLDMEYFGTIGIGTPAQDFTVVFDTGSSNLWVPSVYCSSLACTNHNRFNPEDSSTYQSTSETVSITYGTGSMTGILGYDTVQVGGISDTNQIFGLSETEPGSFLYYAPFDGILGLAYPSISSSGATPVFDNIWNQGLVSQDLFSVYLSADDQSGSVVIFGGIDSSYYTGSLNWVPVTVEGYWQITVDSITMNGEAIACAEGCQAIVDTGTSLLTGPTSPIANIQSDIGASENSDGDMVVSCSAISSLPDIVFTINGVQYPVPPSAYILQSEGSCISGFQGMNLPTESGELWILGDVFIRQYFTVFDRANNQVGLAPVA

- Kd: 0.297 nM
- koff: 0.000273 s⁻¹
- kon: 919000 M⁻¹ s⁻¹
Molecule: 对照抗体 (antibody)

- Kd: 0.0309 nM
- koff: 2.85e-05 s⁻¹
- kon: 921000 M⁻¹ s⁻¹
B1: Anti-HPG I 8C20单克隆抗体 (antibody, V domains shown)
VH: QVQLQQPGAELVRPGASVKLSCKASDYTFTSYWMNWVKQRPEQGLEWIGRIDPYDSETHYNQKFKDKAILTVDKSSSTAYMQLSSLTSEDSAVYYCARFSMVVAVYAMDYWGQGTSVTVSS
VL: DIQMTQSPASLSASVGETVTITCRASGNIHNYLAWFQQKQGKSPQILVYYAKTLADGVPSRFSGSGSGTQFSLKINSLQPEDFGSYYCQHFWSTPWTFGGGTKLEIK
